Measurements published in paper PMC7820887 (Frontiers in Immunology, 2020).
Changes are numbered by the printed parent chain.

T1: soluble extracellular domain of human IL-5 receptor alpha subunit (sIL-5Rα) (human, UniProt Q01344 21-333)
T1 chain: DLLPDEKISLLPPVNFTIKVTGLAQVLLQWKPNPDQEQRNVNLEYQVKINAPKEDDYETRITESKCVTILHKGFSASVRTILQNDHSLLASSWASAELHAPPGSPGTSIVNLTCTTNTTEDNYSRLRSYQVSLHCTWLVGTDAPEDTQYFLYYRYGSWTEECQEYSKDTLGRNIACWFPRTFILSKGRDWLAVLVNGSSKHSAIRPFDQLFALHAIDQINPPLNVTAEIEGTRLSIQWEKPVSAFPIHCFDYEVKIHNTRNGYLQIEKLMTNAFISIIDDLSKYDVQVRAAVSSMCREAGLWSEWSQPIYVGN

B1: benralizumab analogue (antibody, V domains shown)
VH: EVQLVQSGAEVKKPGASVKVSCKASGYTFTSYVIHWVRQRPGQGLAWMGYINPYNDGTKYNERFKGKVTITSDRSTSTVYMELSSLRSEDTAVYLCGREGIRYYGLLGDYWGQGTLVTVSS
VL: DIQMTQSPSSLSASVGDRVTITCGTSEDIINYLNWYQQKPGKAPKLLIYHTSRLQSGVPSRFSGSGSGTDFTLTISSLQPEDFATYYCQQGYTLPYTFGQGTKVEIK
notes: VH of benralizumab, made by DNA synthesis; VL of benralizumab, made by DNA synthesis; Human IgG1, kappa; VH and VL identical to commercial benralizumab but with core fucose on the Fc N-glycan; also called benralizumab analogue (fucosylated human IgG1); source: HEK293F, transiently transfected, purified (Protein A)
B2: 5R65 (antibody, V domains shown)
VH: QVQLVQSGAEVKKPGSSVKVSCKASGYTFTSYWINWVRQAPGQGLEWIGHIYPNKNENYYNHKFKDKATLTVDKSTNTAYMELSSLRSEDTAVYYCTRDYYGRSYYYAMDYWGQGTTLTVSS
VL: DIQMTQSPSTLSASVGDRVTITCKASQNVGTAVAWYQQKPGKAPKLLIYWASTRHTGVPDRFSGSGSGTDFTLTISSLQPDDFATYYCQQFGRYPYTFGSGTKVEVK
notes: Human IgG1, kappa; selected as scFab by yeast display from the hu2B7 VH-CDR2 library; also called 5R65 Ab; source: HEK293F, purified (Protein A)
B3: 5R65.7 (antibody, V domains shown)
VH: B2 VH with D99E, Y100F, S104Q, Y107Q
VL: B2 VL
notes: as the VH of m6 (5R65) with mutations in VH-CDR3 (Kabat residues 95–100d were randomised); no mutations in VL-CDR3; Human IgG1, kappa; selected as scFab by yeast display from the 5R65 CDR3 library under kinetic screening; also called 5R65.7 Ab; source: HEK293F, purified (Protein A)
B4: m2B7 murine anti–IL-5Rα antibody (antibody, V domains shown)
VH: QVQLQQPGAELVRPGASVKLSCKASGYTFTSYWINWVKQRPGQGLEWIGHIYPSESYTNYNQKFKDKATLTVDKSSSTAYMQLSSPTSEDSAVYYCTRDYYGRSYYYAMDYWGQGTSVTVSS
VL: DIVMTQSHKFMSTSVGDRVSITCKASQNVGTAVAWYQQKPGQSPKLLIYWASTRHTGVPDRFTGSGSGTDFTFTISNVQSEDLADYFCQQFGRYPYTFGGGTKLEIK
notes: VH of murine m2B7; FRs of mouse germline IGHV1-61*01; VL of murine m2B7; FRs of mouse germline IGKV6-23*01; source: hybridoma supernatant, expanded and purified
B5: 5R68 (antibody, V domains shown)
VH: B2 VH with N54T, K55A, N56T, E57I, N58A, Y59V, H62D
VL: B2 VL
notes: Human IgG1, kappa; selected as scFab by yeast display from the hu2B7 VH-CDR2 library; source: HEK293F, purified (Protein A)
B6: 5R65.45 (antibody, V domains shown)
VH: B2 VH with D99E, Y107N
VL: B2 VL
notes: as the VH of m6 (5R65) with mutations in VH-CDR3 (Kabat residues 95–100d were randomised); no mutations in VL-CDR3; Human IgG1, kappa; selected as scFab by yeast display from the 5R65 CDR3 library under kinetic screening; source: HEK293F, purified (Protein A)
B7: 5R80 (antibody, V domains shown)
VH: B2 VH with N54Q, N56T, E57L, N58T, Y59I
VL: B2 VL
notes: as for B5
B8: 5R65.10 (antibody, V domains shown)
VH: B2 VH with D99E, Y107A
VL: B2 VL
notes: as for B6
B9: 5R86 (antibody, V domains shown)
VH: B2 VH with N54T, K55S, N56S, E57V, N58K, Y59F, H62N
VL: B2 VL
notes: as for B5
B10: 5R65.39 (antibody, V domains shown)
VH: B2 VH with D99E, Y100F, Y105R, Y107S
VL: B2 VL
notes: as for B6
B11: 5R65.18 (antibody, V domains shown)
VH: B2 VH with D99E, S104T, Y107S
VL: B2 VL
notes: as for B6
B12: 5R65.14 (antibody, V domains shown)
VH: B2 VH with D99E, Y100H, S104P, Y107N
VL: B2 VL
notes: as for B6
B13: hu2B7 humanized anti–IL-5Rα antibody (antibody, V domains shown)
VH: B2 VH with N54S, K55E, N56S, E57Y, N58T, Y59N, H62Q
VL: B2 VL
notes: VH of hu2B7: CDRs of m2B7 grafted on the FRs of daclizumab, mouse ThrH93 (Kabat) kept; VL of hu2B7: CDRs of m2B7 grafted on the FRs of daclizumab, mouse AspL60 and AspL70 kept; Full-length human IgG1, kappa; source: HEK293F, transiently cotransfected, purified (Protein A)

Each binder was assayed against T2, soluble extracellular domain of human IL-5 receptor alpha subunit (sIL-5Rα) (human, UniProt Q01344) (assay: cell-based or functional assay). Conditions: not given.

| IC50 of inhibition of rhIL-5 (80 pM)-stimulated proliferation of TF-1/IL-5Rα cells, Abs 0 to 32 nM, 40 h (blocks IL-5 with IL-5Rα) | NK cell–mediated ADCC against peripheral eosinophils from healthy controls (autologous NK cells 1:5, Ab 1 μM, rhIL-5 100 pM, 20 h), fold against the benralizumab analogue | Binder |
| --- | --- | --- |
| ~1.99 nM |  | B1 |
| ~11.8 nM | ~1.5 fold | B2 |
| ~0.57 nM | ~3 fold | B3 |

Each binder was assayed against T2, soluble extracellular domain of human … (assay: BLI; Octet QKe, 30°C, 1× kinetics buffer in PBS pH 7.4; Ab immobilised on anti-human IgG Fc capture (AHC) biosensors, sIL-5Rα as analyte; association 300 s, dissociation 600 s; 1:1 binding model). Conditions: both partners purified.

| Kd | koff | kon | Binder |
| --- | --- | --- | --- |
| 40.2 ± 0.84 nM | 0.000834 s⁻¹ | 20700 M⁻¹ s⁻¹ | B4 |
| 26.8 ± 0.52 nM | 0.0011 s⁻¹ | 41100 M⁻¹ s⁻¹ | B1 |
| 24.1 ± 0.47 nM | 0.000566 s⁻¹ | 23500 M⁻¹ s⁻¹ | B5 |
| 7.26 ± 0.36 nM | 0.000181 s⁻¹ | 24900 M⁻¹ s⁻¹ | B6 |
| 16.2 ± 0.59 nM | 0.000365 s⁻¹ | 22500 M⁻¹ s⁻¹ | B7 |
| 14.5 ± 0.29 nM | 0.000329 s⁻¹ | 22700 M⁻¹ s⁻¹ | B2 |
| 4.64 ± 0.23 nM | 0.000147 s⁻¹ | 31700 M⁻¹ s⁻¹ | B3 |
| 8.25 ± 0.4 nM | 0.000201 s⁻¹ | 24400 M⁻¹ s⁻¹ | B8 |
| 11.8 ± 0.51 nM | 0.0003 s⁻¹ | 25400 M⁻¹ s⁻¹ | B9 |
| 6.13 ± 0.32 nM | 0.000171 s⁻¹ | 28000 M⁻¹ s⁻¹ | B10 |
| 5.95 ± 0.27 nM | 0.000133 s⁻¹ | 22400 M⁻¹ s⁻¹ | B11 |
| 8.64 ± 0.35 nM | 0.000199 s⁻¹ | 23000 M⁻¹ s⁻¹ | B12 |
| 47.8 ± 1.06 nM | 0.00106 s⁻¹ | 22200 M⁻¹ s⁻¹ | B13 |

What follows are binders tested against T3, insulin (Homo sapiens (assumed), UniProt P01308) (assay: ELISA; plates coated at 25°C for 1 h with sIL-5Rα (50 ng/well) or off-target antigens (insulin 125 ng/well, hemocyanin 125 ng/well); Abs 8–200 nM in PBST pH 7.4 with 2% skim milk, 25°C, 1 h; detected with HRP anti-human Fc or anti-mouse Fc). Conditions: both partners purified.
T3 construct: insulin B chain; insulin A chain; Off-target antigen of the nonspecificity ELISA (125 ng/well)
T3 sequence (P01308 whole entry, looked up): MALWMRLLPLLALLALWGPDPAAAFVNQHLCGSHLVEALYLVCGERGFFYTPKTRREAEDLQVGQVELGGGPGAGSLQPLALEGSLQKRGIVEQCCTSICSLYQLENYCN

| binding result | Binder |
| --- | --- |
| no binding (tested: 100 nM) | B5 |
| no binding (tested: 100 nM) | B7 |
| no binding (tested: 100 nM) | B2 |
| no binding (tested: 100 nM) | B9 |

Each binder was assayed against T2, soluble extracellular domain of human … (assay: ELISA; competitive: plates coated with IL-5-mFc (100 ng/well); sIL-5Rα (50 nM) added with anti–IL-5Rα Abs (0–1 µM), 25°C, 1 h; bound sIL-5Rα detected with HRP anti-His). Conditions: both partners purified.

| IC50 | Binder |
| --- | --- |
| ~9.8 nM | B1 |
| ~9.5 nM | B2 |

Target: T1, soluble extracellular domain of human …
Test: ELISA; competition with plate-immobilized IL-5-mFc
Conditions: not given

| IC50 | Binder |
| --- | --- |
| 28.8 nM | B5 |
| 24.2 nM | B7 |
| 14.1 nM | B9 |
| 57.4 nM | B13 |
